Results from patent publication US20230181723A1 (UNIVERSITY OF MARYLAND COLLEGE PARK, published 2023).

What was measured:
[1] = molecular target: T1, FLAG-tagged human FcRn heavy chain (pcDNA-FLAGFcRn), expressed in HeLa^FcRn cells (human, UniProt P55899 24-365); test: probing for interactions in HeLa^FcRn cells transfected with HA-tagged HCMV cDNAs
T1 construct: whole, on cells; it pairs with endogenous β2m in the cells; also called FcRn HC; WT FcRn

[2] = molecular target: T2, HA-tagged HCMV US11 (pEF6-US11, gene synthesised from HCMV AD169 DNA), expressed in HeLa cells (human cytomegalovirus (AD169 DNA as …, UniProt P09727 18-215)); test: immunoprecipitation of US11 from HeLa^US11 cells, blot for Derlin-1
T2 construct: Full-length membrane glycoprotein expressed in transfected HeLa cells and tested in CHAPS lysates; also called HCMV glycoprotein US11; wild-type US11

[3] = molecular target: T2, HA-tagged HCMV US11 (pEF6-US11, gene …); test: reciprocal co-immunoprecipitation (anti-HA, anti-FLAG) from HeLa^HFE+US11 lysates
[4] = molecular target: T1, FLAG-tagged human FcRn heavy chain …; test: reciprocal co-immunoprecipitation (anti-HA for US2, anti-FLAG for FcRn) from HeLa^FcRn+US2 lysates
[5] = molecular target: T3, human TMEM129 (E3 ligase), endogenous in HeLa cells (human, UniProt A0AVI4 1-362); test: immunoprecipitation with anti-TMEM129 from HeLa^FcRn cells transfected with Derlin-1
T3 construct: whole, on cells; Endogenous protein in HeLa lysates; also called E3 ligase TMEM129
T3 sequence (looked up): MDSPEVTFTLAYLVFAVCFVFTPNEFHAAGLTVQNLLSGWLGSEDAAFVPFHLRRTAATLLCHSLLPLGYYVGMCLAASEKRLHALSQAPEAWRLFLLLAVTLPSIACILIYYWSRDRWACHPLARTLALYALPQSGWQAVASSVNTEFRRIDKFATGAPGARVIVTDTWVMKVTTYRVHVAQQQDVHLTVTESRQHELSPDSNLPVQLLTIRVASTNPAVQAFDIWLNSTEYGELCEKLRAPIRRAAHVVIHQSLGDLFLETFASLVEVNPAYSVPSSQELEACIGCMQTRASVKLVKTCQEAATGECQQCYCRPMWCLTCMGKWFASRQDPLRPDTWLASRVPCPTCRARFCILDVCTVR

T1 sequence (P55899 other isoform, or with tags, fused parts or gaps): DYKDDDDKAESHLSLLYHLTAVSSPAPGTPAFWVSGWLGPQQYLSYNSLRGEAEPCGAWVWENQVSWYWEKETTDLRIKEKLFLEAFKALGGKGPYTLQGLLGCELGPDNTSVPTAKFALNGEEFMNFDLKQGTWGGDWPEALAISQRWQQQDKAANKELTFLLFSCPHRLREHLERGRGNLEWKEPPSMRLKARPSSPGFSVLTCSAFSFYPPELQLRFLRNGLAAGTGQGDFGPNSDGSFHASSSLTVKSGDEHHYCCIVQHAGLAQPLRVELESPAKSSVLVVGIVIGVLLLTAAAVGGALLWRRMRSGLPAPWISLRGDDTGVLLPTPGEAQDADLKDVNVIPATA

B1: HA-tagged HCMV UL16, expressed in HeLa^FcRn cells (other)
chain: VDLGSKSSNSTCRLNVTELASIHPGETWTLHGMCISICYYENVTEDEIIGVAFTWQHNESVVDLWLYQNDTVIRNFSDITTNILQDGLKMRTVPVTKLYTSRMVTNLTVGRYDCLRCENGTTKIIERLYVRLGSLYPRPPGSGLAKHPSVSADEELSATLARDIVLVSAITLFFFLLALRIPQRLCQRLRIRLPHRYQRLRTED
notes: whole, on cells
- binding result [1]: binds

B2: Derlin-1 in HeLa^US11 or HeLa^US11Q192L stable cells (FIG. 16A; no transfection of Derlin-1 stated) (other)
chain: SDIGDWFRSIPAITRYWFAATVAVPLVGKLGLISPAYLFLWPEAFLYRFQIWRPITATFYFPVGPGTGFLYLVNLYFLYQYSTRLETGAFDGRPADYLFMLLFNWICIVITGLAMDMQLLMIPLIMSVLYVWAQLNRDMIVSFWFGTRFKACYLPWVILGFNYIIGGSVINELIGNLVGHLYFFLMFRYPMDLGGRNFLSTPQFLYRWLPSRRGGVSGFGVPPASMRRAADQNGGGGRHNWGQGFRLGDQ
notes: whole, on cells
- binding result [2]: binds

B3: FLAG-tagged human HFE (hemochromatosis protein), expressed in HeLa^HFE cells (other)
chain: DYKDDDDKRLLRSHSLHYLFMGASEQDLGLSLFEALGYVDDQLFVFYDHESRRVEPRTPWVSSRISSQMWLQLSQSLKGWDHMFTVDFWTIMENHNHSKESHTLQVILGCEMQEDNSTEGYWKYGYDGQDHLEFCPDTLDWRAAEPRAWPTKLEWERHKIRARQNRAYLERDCPAQLQQLLELGRGVLDQQVPPLVKVTHHVTSSVTTLRCRALNYYPQNITMKWLKDKQPMDAKEFEPKDVLPNGDGTYQGWITLAVPPGEEQRYTCQVEHPGLDQPLIVIWEPSPSGTLVIGVISGIAVFVVILFIGILFIILRKRQGSRGAMGHYVLAERE
notes: whole, on cells; Specificity control with an MHC class I-like structure; also called HEF; HeLa^HFE+US11
- binding result [3]: no binding

B4: HA-tagged HCMV US6, expressed in HeLa^FcRn cells (other)
chain: ERSSRDPKTLLSLSPRQQACVPRTKSHRPVCYNDTGDCTDADDSWKQLGEDFAHQCLQAAKKRPKTHKSRPNDRNLEGRLTCQRVRRLLPCDLDIHPSHRLLTLMNNCVCDGAVWNAFRLIERHGFFAVTLYLCCGITLLVVILALLCSITYESTGRGIRRCGS
notes: whole, on cells
- binding result [1]: binds

B5: HA-tagged HCMV US2 (pEF6-US2), expressed in HeLa cells (other)
chain: MNNLWKAWVGLWTSMGPLIRLPDGITKAGEDALRPWKSTAKHPWFQIEDNRCYIDNGKLFARGSIVGNMSRFVFDPKADYGGVGENLYVHADDVEFVPGESLKWNVRNLDVMPIFETLALRLVLQGDVIWLRCVPELRVDYTSSAYMWNMQYGMVRKSYTHVAWTIVFYSINITLLVLFIVYVTVDCNLSMMWMRFFVCYPYDVPDYA
notes: whole, on cells; also called HeLa^US2; HeLa^FcRn+US2
- binding result [4]: no binding

B6: Myc-tagged human Derlin-1 (pSectag2-Derlin-1) (other)
chain: SDIGDWFRSIPAITRYWFAATVAVPLVGKLGLISPAYLFLWPEAFLYRFQIWRPITATFYFPVGPGTGFLYLVNLYFLYQYSTRLETGAFDGRPADYLFMLLFNWICIVITGLAMDMQLLMIPLIMSVLYVWAQLNRDMIVSFWFGTRFKACYLPWVILGFNYIIGGSVINELIGNLVGHLYFFLMFRYPMDLGGRNFLSTPQFLYRWLPSRRGGVSGFGVPPASMRRAADQNGGGGRHNWGQGFRLGDQEQKLISEEDL
notes: whole, on cells; Transiently expressed in HeLa transfectants; tested in lysates; also called myc-tagged Derlin-1; Derlin-1 (WT)
- binding result [5]: binds
